Laboratory results reported in patent US7494647 (Chugai, dated 2009).
Where two headings read alike, the source gives them in different places.

Columns and labels:
[1] = target: T1, soluble human TF (human TF 1-219 with the FLAG peptide linked to the C-terminal) (human, UniProt P13726 33-251); assay: BIACORE; antibody captured on Protein G chip, soluble TF as analyte; mean ± SD, n = 3
T1 construct: Entry is the whole soluble construct (TF 1-219 followed by FLAG peptide M2); also called soluble TF; shTF
T1 sequence (P13726 other isoform, or with tags, fused parts or gaps limits assumed): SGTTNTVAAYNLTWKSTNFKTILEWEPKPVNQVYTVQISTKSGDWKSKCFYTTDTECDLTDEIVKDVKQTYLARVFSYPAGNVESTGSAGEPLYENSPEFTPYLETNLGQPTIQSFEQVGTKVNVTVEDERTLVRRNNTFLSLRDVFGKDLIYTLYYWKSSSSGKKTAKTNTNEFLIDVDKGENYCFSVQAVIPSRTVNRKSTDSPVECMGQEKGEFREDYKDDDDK
Description: Kinetic analysis of the antigen-antibody reaction was carried out using BIACORE. The recombinant Protein G was immobilized on a sensor chip, to which the antibody was coupled. The purified recombinant TF (a soluble TF in which the FLAG peptide was tagged at 1-219) was used as the antigen, and the-soluble TF prepared at various concentrations were used as analytes. From the sensorgram obtained, kinetic parameters (dissociation rate constants kdiss, and binding rate constants kass) were calculated.
As the running buffer, the HBS-EP buffer was used. Ten μl Of […] antibody solution was injected at a flow rate of 20 μl/min to immobilize antibody. The antibody was diluted with the HBS-EP buffer. Forty μl Of the soluble human TF solution at various concentrations were injected at a flow rate of 30 μl/min thereto. In the analysis, 80 seconds for injection was set as the binding phase and then changed to the HBS-EP buffer to set the dissociation phase of 120 seconds. After the dissociation phase was over, 10 μl of 20 mM hydrochloric acid was injected to reconstitute the sensor chip. The binding, dissociation, and reconstitution were set as one cycle, and the sensorgram was obtained for each antibody. The soluble human TF solution was prepared at concentrations of 250 nM, 125 nM, 62.5 nM, 31.3 nM, 15.6 nM, 7.81 nM, and 3.91 nM using the HBS-EP buffer. As the blank, the sensorgram obtained by injecting the HBS-EP buffer used for dilution was used.
The data file of interest was read in, and the comparison of reaction patterns by superscription was made using as the baseline the sensorgram of the HBS-EP buffer. Furthermore, using an analytical application software "BIAevaluation 2.1" (Pharmacia) exclusively for BIACORE that calculates kinetic parameters (binding rate constants kass and dissociation rate constants kdiss) by curve-fitting, kinetic analysis of interaction was performed. In order to determine the binding rate constants kass, the analysis model type 4 was used (BIAevaluation 2.1 Software Hand book, A1-A5). Based on the values calculated from each flow cell, kinetic parameters for each antibody were obtained.

[2] = target: T2, human tissue factor (TF) on human bladder carcinoma cells J82 (human, UniProt P13726 33-295); assay: cell ELISA on paraformaldehyde-fixed J82 cells; AP-conjugated goat anti-human IgGγ; absorbance 405/655 nm
T2 construct: whole, on cells; also called the antigen; J82 cells
T2 sequence (P13726 33-295): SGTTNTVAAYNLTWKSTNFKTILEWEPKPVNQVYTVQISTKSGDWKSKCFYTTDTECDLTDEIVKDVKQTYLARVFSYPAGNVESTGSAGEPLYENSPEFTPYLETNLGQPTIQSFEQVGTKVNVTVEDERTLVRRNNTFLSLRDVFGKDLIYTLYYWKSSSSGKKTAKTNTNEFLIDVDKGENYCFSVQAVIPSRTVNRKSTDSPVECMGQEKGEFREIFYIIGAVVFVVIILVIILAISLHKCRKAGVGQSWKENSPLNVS
Description: (§1) Cell ELISA plates for measurement of antigen binding were prepared as follows. Cells used were human bladder carcinoma cells J82 (ATCC HTB-1). To 60 wells of a 96-well cell culture plate, 1 ×10^5 J82 cells were inoculated. This was cultured (RPMI1640 medium containing 10% fetal bovine serum (GIBCO)) for one day in a CO_2 incubator to allow the cells to be attached thereto. After discarding the culture liquid, each well was washed twice with 300 μl PBS. 100 μl of PBS containing 4% paraformaldehyde (hereinafter referred to as PFA/PBS) was added to each well, and placed on ice for 10 minutes to immobilize the cells.
(§2) PFA/PBS was discarded, and each well was washed twice with 300 μl of PBS, and then blocked with 250 μl of DB. The culture supernatant or purified antibody was serially diluted with DB, 100 μl of which was added to each well. After incubating at room temperature for 2 hours followed by washing with RB, 100 μl of alkaline phosphatase-conjugated goat anti-human IgGγ antibody (BioSource) diluted 1000-fold with DB was added. After incubating for 1 hour followed by washing with RB, the substrate solution was added, and then absorbance at 405/655 nm was measured using the Microplate Reader (Bio-Rad).

TF/Factor VIIa complex [3] = target: T3, TF/Factor VIIa complex (human, UniProt P13726 33-295; P08709 61-466)
T3 sequence (P13726 33-295 limits assumed, chain 1 of 2): as the sequence (P13726 33-295) above
T3 sequence (P08709 61-466 limits assumed, chain 2 of 2): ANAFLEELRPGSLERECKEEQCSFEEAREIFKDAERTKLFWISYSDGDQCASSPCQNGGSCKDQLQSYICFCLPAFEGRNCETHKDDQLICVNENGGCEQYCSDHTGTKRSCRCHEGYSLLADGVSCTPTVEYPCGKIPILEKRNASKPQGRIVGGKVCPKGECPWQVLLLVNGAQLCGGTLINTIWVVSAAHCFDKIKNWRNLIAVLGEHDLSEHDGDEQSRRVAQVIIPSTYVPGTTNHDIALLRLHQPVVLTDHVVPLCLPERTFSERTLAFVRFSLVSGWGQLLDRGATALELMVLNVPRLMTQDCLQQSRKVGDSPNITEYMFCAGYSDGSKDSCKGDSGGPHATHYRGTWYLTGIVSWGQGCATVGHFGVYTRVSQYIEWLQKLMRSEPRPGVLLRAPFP

[4] = target: T2, human tissue factor (TF) on human …; assay: cell ELISA on paraformaldehyde-fixed J82 cells; AP-conjugated goat anti-human IgGγ; absorbance 405/655 nm; remark: listed apart in the source
Description: as §1, §2

[5] = target: T2, human tissue factor (TF) on human …; assay: as above; remark: listed apart in the source
Description: as §1, §2

[6] = target: T2, human tissue factor (TF) on human …; assay: as above; remark: listed apart in the source
Description: as §1, §2

[7] = target: T2, human tissue factor (TF) on human …; assay: as above; remark: listed apart in the source
Description: as §1, §2

TF/Factor VIIa complex [8] = target: T3, TF/Factor VIIa complex; assay: cell-based or functional assay

Binder | Kd [1] | koff [1] | kon [1] | EC50 (read off the curve) [2] | EC50 (read off the curve) [4] | EC50 (read off the curve) [5] | EC50 (read off the curve) [6] | EC50 (read off the curve) [7] | other results
H chain humanized version b/L chain humanized version b antibody (antibody, IgG4, V domains shown, also called b-b; bb) VH: QVQLLESGAVLARPGTSVKISCKASGFNIKDYYMHWVKQRPGQGLEWIGGNDPANGHSMYDPKFQGRVTITADTSTNTAYMELSSLRSEDTAIYYCARDSGYAMDYWGQGTLVTVSS VL: DIQMTQSPSSLSASVGDRVTITCKASQDIKSFLSWYQQKPGKAPKLLIYYATSLADGVPSRFSGSGSGTDYTLTISSLQPEDFATYYCLQHGESPYTFGGGTKVEIK | 2.3 nM | 0.000952 s⁻¹ | 415000 M⁻¹ s⁻¹ | ~0.05 µg/mL | ~0.07 µg/mL | – | – | – | IC50 (read off the curve) (TF/Factor VIIa complex [3]): 0.1 µg/mL
H chain humanized version a/L chain humanized version a antibody (antibody, IgG4, V domains shown) VH: QVQLLESGAVLARPGTSVKISCKASGFNIKDYYMHWVKQRPGQGLEWIGGNDPANGHSMYDPKFQGRAKLTAATSASIAYLEFSSLTNEDSAVYYCARDSGYAMDYWGQGTLVTVSS VL: DIQMTQSPSSLSASVGDRVTITCKASQDIKSFLSWYQQKPGKAPKLLIYYATSLADGVPSRFSGSGSGTDFTLTISSLQPEDFATYYCLQHGESPYTFGGGTKVEIK | – | – | – | – | – | ~0.03 µg/mL | – | – | –
H chain chimeric/L chain humanized version a antibody (antibody, IgG4, V domains shown, H chain V region is that of mouse ATR-5) VH: EVQLQQSGTNLVRPGALVKLSCKGSGFNIKDYYMHWVKQRPEQGLEWIGGNDPANGHSMYDPKFQGKASITADTSSNTAYLQLSSLTSEDTAVYFCARDSGYAMDYWGQGTSVTVSS VL: DIQMTQSPSSLSASVGDRVTITCKASQDIKSFLSWYQQKPGKAPKLLIYYATSLADGVPSRFSGSGSGTDFTLTISSLQPEDFATYYCLQHGESPYTFGGGTKVEIK | – | – | – | – | – | – | ~0.03 µg/mL | – | –
H chain chimeric/L chain humanized version c antibody (antibody, IgG4, V domains shown, H chain V region is that of mouse ATR-5; also called ch-c) VH: EVQLQQSGTNLVRPGALVKLSCKGSGFNIKDYYMHWVKQRPEQGLEWIGGNDPANGHSMYDPKFQGKASITADTSSNTAYLQLSSLTSEDTAVYFCARDSGYAMDYWGQGTSVTVSS VL: DIQMTQSPSSLSASVGDRVTITCKASQDIKSFLSWYQQKPGKAPKLLIYYATSLADGVPSRFSGSGSGTDYTLTISSLQPEDIATYYCLQHGESPYTFGGGTKVEIK | – | – | – | – | – | – | – | ~0.07 µg/mL | –
H chain humanized version b/L chain humanized version c antibody (antibody, V domains shown, also called b-c) VH: QVQLLESGAVLARPGTSVKISCKASGFNIKDYYMHWVKQRPGQGLEWIGGNDPANGHSMYDPKFQGRVTITADTSTNTAYMELSSLRSEDTAIYYCARDSGYAMDYWGQGTLVTVSS VL: DIQMTQSPSSLSASVGDRVTITCKASQDIKSFLSWYQQKPGKAPKLLIYYATSLADGVPSRFSGSGSGTDYTLTISSLQPEDIATYYCLQHGESPYTFGGGTKVEIK | – | – | – | ~0.05 µg/mL | – | – | – | – | –
H chain chimeric/L chain chimeric antibody (chimeric ATR-5 antibody) (antibody, V domains shown, Mouse ATR-5 V regions joined to human C regions; Both an IgG1 (N5KG1(V)) and an IgG4 (N5KG4P) kappa form were made; also called ch-ch; cha-cha) VH: EVQLQQSGTNLVRPGALVKLSCKGSGFNIKDYYMHWVKQRPEQGLEWIGGNDPANGHSMYDPKFQGKASITADTSSNTAYLQLSSLTSEDTAVYFCARDSGYAMDYWGQGTSVTVSS VL: DIKMTQSPSSMYASLGERVTITCKASQDIKSFLSWYQQKPWKSPKTLIYYATSLADGVPSRFSGSGSGQDYSLTINNLESDDTATYYCLQHGESPYTFGGGTKLEIK | 1.09 nM | 0.000506 s⁻¹ | 465000 M⁻¹ s⁻¹ | ~0.04 µg/mL | ~0.07 µg/mL | ~0.05 µg/mL | ~0.04 µg/mL | ~0.08 µg/mL | IC50 (read off the curve) (TF/Factor VIIa complex [8]): ~0.2 µg/mL
